The text below walks through data of patent US20040204388A1 (UCB, published 2004).

This assay addresses T1, SV2A (rat); native protein of rat brain membranes, solubilized in n-dodecyl-β-D-maltoside; also endogenous in … (rat, UniProt Q02563 1-742).
T1 construct: Native protein from rat tissue or cells, not a recombinant construct; Native glycosylated integral membrane protein; also called soluble SV2A; immunopurified SV2A
Description: Western blot of fractions immunopurified with anti-SV2A antibodies from solubilized rat brain membranes. How it is done:
The rat brain membranes were diluted in a solubilization buffer (Tris-HCl 20 mM pH 7.4, 0.25 M sucrose, protease inhibitors Complete Roche) containing n-dodecyl-β-D-maltoside 15 mM and incubated for two hours at 4° C. Subsequently, the solution was centrifuged at 4° C. for one hour at 100,000 g.

T1 sequence (Q02563 whole entry C340F): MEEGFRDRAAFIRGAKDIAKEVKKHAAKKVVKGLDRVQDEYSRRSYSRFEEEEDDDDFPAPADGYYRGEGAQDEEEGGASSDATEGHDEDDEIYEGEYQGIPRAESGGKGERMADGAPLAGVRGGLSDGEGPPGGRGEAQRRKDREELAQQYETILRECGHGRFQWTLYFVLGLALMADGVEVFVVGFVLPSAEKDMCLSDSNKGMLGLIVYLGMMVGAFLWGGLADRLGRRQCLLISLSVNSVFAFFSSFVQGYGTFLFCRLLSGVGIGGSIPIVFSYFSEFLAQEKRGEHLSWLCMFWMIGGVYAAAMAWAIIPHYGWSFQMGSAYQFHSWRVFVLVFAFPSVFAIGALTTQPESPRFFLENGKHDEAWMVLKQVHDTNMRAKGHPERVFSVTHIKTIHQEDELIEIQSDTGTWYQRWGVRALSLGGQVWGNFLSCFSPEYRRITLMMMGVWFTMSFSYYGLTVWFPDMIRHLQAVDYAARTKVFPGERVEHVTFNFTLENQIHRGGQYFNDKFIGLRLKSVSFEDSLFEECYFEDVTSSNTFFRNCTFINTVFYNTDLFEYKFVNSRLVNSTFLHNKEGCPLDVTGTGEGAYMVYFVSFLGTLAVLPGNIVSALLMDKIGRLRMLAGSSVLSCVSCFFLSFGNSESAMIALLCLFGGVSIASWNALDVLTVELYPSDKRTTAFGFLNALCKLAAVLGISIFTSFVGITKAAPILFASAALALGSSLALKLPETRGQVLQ

B1: SV2B (rat; native isoform in rat brain membranes) (other)
chain: MDDYRYRDNYEGYAPNDGYYRGNEQNPEEDAQSDVTEGHDEEDEIYEGEYQGIPHPDDVKSKQTKMAPSRADGLRGQADLMAERMEDEEQLAHQYETIIDECGHGRFQWTLFFVLVLALMADGVEVFVVSFALPSAEKDMCLSSSKKGMLGLIVYLGMMAGAFILGGLADKLGRKKVLSMSLAINASFASLSSFVQGYGAFLFCRLISGIGIGGSLPIVFAYFSEFLSREKRGEHLSWLGIFWMTGGIYASAMAWSIIPHYGWGFSMGTNYHFHSWRVFVIVCALPATVSMVALKFMPESPRFLLEMGKHDEAWMILKQVHDTNMRAKGTPEKVFTVSHIKTPKQMDEFIEIQSSTGTWYQRWLVRFMTIFKQVWDNALYCVMGPYRMNTLILAVVWFTMALSYYGLTVWFPDMIRYFQDEEYKSKMKVFFGEHVHGATINFTMENQIHQHGKLVNDKFIKMYFKHVLFEDTFFDKCYFEDVTSTDTYFKNCTIESTTFYNTDLYKHKFIDCRFINSTFLEQKEGCHMDFEEDNDFLIYLVSFLGSLSVLPGNIISALLMDRIGRLKMIGGSMLISAVCCFFLFFGNSESAMIGWQCLFCGTSIAAWNALDVITVELYPTNQRATAFGILNGLCKLGAILGNTIFASFVGITKVVPILLAAASLVGGGLVALRLPETREQVLM
notes: Native protein of rat brain; also called isoform SV2B
B1: the binding result was “no binding”.
